Laboratory results taken from US10703784B2, “Antigens and epitopes derived from Mycobacterium tuberculosis” (priority 2011, dated 2020).
Positions count from the first letter of the chain named.

B1: Rv0293c: MTB protein, novel CD4 T cell antigen; Conserved hypotheticals, Island 1 (protein, listed as Mycobacterium tuberculosis)
chain: MSGTFTADAIGPPVPIPDVPGADAGAEGLPSRSVLSARQRILVESSAIADVALRTAVASVLSATVTPAVVANALRHVNEGSERSNLNFYAELAAAHDPAKSFPAPTELPKVTSRPASPLTEWVARGTVDNIAFASGFRAINPTMRQRWSALTANNIVHAQHWRHRDGPRPTLCVIHGFMGSSYLLNGLFFSLPWYYRSGYDVLLYTLPFHGQRAEKFSPFSGFGYFTSGLSGFAEAMAQAVYDFRSIVDYLRHIGVDRIALTGISLGGYTSALLASVESRLEAVIPNCPVVMPAKLFDEWFPANKLVKLGLRLTNISRDELIAGLAYHGPLNYRPLLPKDRRMIITGLGDRMAPPEHAVTLWKQWDRCALHWFPGSHLLHVSQLDYLRRMTVFLQGLMFD
B2: Rv0291: MTB protein, novel CD4 T cell antigen; Intermediary metabolism and respiration, Island 1 (protein, listed as Mycobacterium tuberculosis)
chain: MIRAAFACLAATVVVAGWWTPPAWAIGPPVVDAAAQPPSGDPGPVAPMEQRGACSVSGVIPGTDAGVPTPSQTMLNLPAAWQFSRGEGQLVAIIDTGVQPGPRLPNVDAGGDFVESTDGLTDCDGHGTLVAGIVAGQPGNDGFSGVAPAARLLSIRAMSTKFSPRTSGGDPQLAQATLDVAVLAGAIVHAADLGAKVINVSTITCLPADRMVDQAALGAAIRYAAVDKDAVIVAAAGNTGASGSVSASCDSNPLTDLSRPDDPRNWAGVTSVSIPSWWQPYVLSVASLTSAGQPSKFSMPGPWVGIAAPGENIASVSNSGDGALANGLPDAHQKLVALSGTSYAAGYVSGVAALVRSRYPGLNATEVVRRLTATAHRGARESSNIVGAGNLDAVAALTWQLPAEPGGGAAPAKPVADPPVPAPKDTTPRNVAFAGAAALSVLVGLTAATVAIARRRREPTE
B3: Rv0292: MTB protein, novel CD4 T cell antigen; Cell wall and cell processes, Island 1, Esx-3 (protein, listed as Mycobacterium tuberculosis)
chain: MNPIPSWPGRGRVTLVLLAVVPVALAYPWQSTRDYVLLGVAAAVVIGLFGFWRGLYFTTIARRGLAILRRRRRIAEPATCTRTTVLVWVGPPASDTNVLPLTLIARYLDRYGIRADTIRITSRVTASGDCRTWVGLTVVADDNLAALQARSARIPLQETAQVAARRLADHLREIGWEAGTAAPDEIPALVAADSRETWRGMRHTDSDYVAAYRVSANAELPDTLPAIRSRPAQETWIALEIAYAAGSSTRYTVAAACALRTDWRPGGTAPVAGLLPQHGNHVPALTALDPRSTRRLDGHTDAPADLLTRLHWPTPTAGAHRAPLTNAVSRT
B4: Rv0124: MTB protein, novel CD4 T cell antigen; PE/PPE (protein, listed as Mycobacterium tuberculosis)
chain: MSFVSVAPEIVVAAATDLAGIGSAISAANAAAAAPTTAVLAAGADEVSAAIAALSGHAQAYQALSAQAAAFHQQFVQTLAGGAGAYAAAEAQVEQQLLAAINAPTQALLGRPLIGNGADGAPGTGQAGGAGGILYGNGGNGGSGAAGQAGGAGGPAGLIGHGGSGGAGGSGAAGGAGGHGGWLWGNGGVGGSGGAGVGAGVAGGHGGAGGAAGLWGAGGGGGNGGNGADANIVSGGDGGLGGAGGGGGWLYGDGGAGGHGGQGAIGLGGGAGGDGGQGGAGRGLWGTGGAGGHGGQGGGTGGPPLPGQAGMGAAGGAGGLIGNGGAGGDGGVGASGGVAGVGGAGGNAMLIGHGGAGGAGGDSSFANGAAGGAGGAGGHLFGNGGSGGHGGAVTAGNTGIGGAGGVGGDARLIGHGGAGGAGGDRAGALVGRDGGPGGNGGAGGQLYGNGGDGAPGTGGTLQAAVSGLVTALFGAPGQPGDTGQPG
B5: Rv2874: MTB protein, novel CD4 T cell antigen; Intermediary metabolism and respiration (protein, listed as Mycobacterium tuberculosis)
chain: MVESRRAAAAASAYASRCGIAPATSQRSLATPPTISVPSGEGRCRCHVARGAGRDPRRRLRRRRWCGRCGYHSHLTGGEFDVNRLCQQRSRERSCQLVAVPADPRPKRQRITDVLTLALVGFLGGLITGISPCILPVLPVIFFSGAQSVDAAQVAKPEGAVAVRRKRALSATLRPYRVIGGLVLSFGMVTLLGSALLSVLHLPQDAIRWAALVALVAIGAGLIFPRFEQLLEKPFSRIPQKQIVTRSNGFGLGLALGVLYVPCAGPILAAIVVAGATATIGLGTVVLTATFALGAALPLLFFALAGQRIAERVGAFRRRQREIRIATGSVTILLAVALVFDLPAALQRAIPDYTASLQQQISTGTEIREQLNLGGIVNAQNAQLSNCSDGAAQLESCGTAPDLKGITGWLNTPGNKPIDLKSLRGKVVLIDFWAYSCINCQRAIPHVVGWYQAYKDSGLAVIGVHTPEYAFEKVPGNVAKGAANLGISYPIALDNNYATWTNYRNRYWPAEYLIDATGTVRHIKFGEGDYNVTETLVRQLLNDAKPGVKLPQPSSTTTPDLTPRAALTPETYFGVGKVVNYGGGGAYDEGSAVFDYPPSLAANSFALRGRWALDYQGATSDGNDAAIKLNYHAKDVYIVVGGTGTLTVVRDGKPATLPISGPPTTHQVVAGYRLASETLEVRPSKGLQVFSFTYG
B6: Rv1788: MTB protein, novel CD4 T cell antigen; PE/PPE (protein, listed as Mycobacterium tuberculosis)
chain: MSFVTTQPEALAAAAGSLQGIGSALNAQNAAAATPTTGVVPAAADEVSALTAAQFAAHAQIYQAVSAQAAAIHEMFVNTLQMSSGSYAATEAANAAAAG
B7: Rv1791: MTB protein, novel CD4 T cell antigen; PE/PPE (protein, listed as Mycobacterium tuberculosis)
chain: B6 chain with G16A, S17N, S23T, A24T, L25M, T34A, I61M, A64T, Q81V, M82A
B8: Rv3330: MTB protein, novel CD4 T cell antigen; Cell wall and cell processes (protein, listed as Mycobacterium tuberculosis)
chain: MAFLRSVSCLAAAVFAVGTGIGLPTAAGEPNAAPAACPYKVSTPPAVDSSEVPAAGEPPLPLVVPPTPVGGNALGGCGIITAPGSAPAPGDVSAEAWLVADLDSGAVIAARDPHGRHRPASVIKVLVAMASINTLTLNKSVAGTADDAAVEGTKVGVNTGGTYTVNQLLHGLLMHSGNDAAYALARQLGGMPAALEKINLLAAKLGGRDTRVATPSGLDGPGMSTSAYDIGLFYRYAWQNPVFADIVATRTFDFPGHGDHPGYELENDNQLLYNYPGALGGKTGYTDDAGQTFVGAANRDGRRLMTVLLHGTRQPIPPWEQAAHLLDYGFNTPAGTQIGTLIEPDPSLMSTDRNPADRQRVDPQAAARISAADALPVRVGVAVIGALIVFGLIMVARAMNRRPQH
B9: Rv3876: MTB protein, novel CD4 T cell antigen; Cell wall and cell processes, Island 3, Esx-1 (protein, listed as Mycobacterium tuberculosis)
chain: MAADYDKLFRPHEGMEAPDDMAAQPFFDPSASFPPAPASANLPKPNGQTPPPTSDDLSERFVSAPPPPPPPPPPPPPTPMPIAAGEPPSPEPAASKPPTPPMPIAGPEPAPPKPPTPPMPIAGPEPAPPKPPTPPMPIAGPAPTPTESQLAPPRPPTPQTPTGAPQQPESPAPHVPSHGPHQPRRTAPAPPWAKMPIGEPPPAPSRPSASPAEPPTRPAPQHSRRARRGHRYRTDTERNVGKVATGPSIQARLRAEEASGAQLAPGTEPSPAPLGQPRSYLAPPTRPAPTEPPPSPSPQRNSGRRAERRVHPDLAAQHAAAQPDSITAATTGGRRRKRAAPDLDATQKSLRPAAKGPKVKKVKPQKPKATKPPKVVSQRGWRHWVHALTRINLGLSPDEKYELDLHARVRRNPRGSYQIAVVGLKGGAGKTTLTAALGSTLAQVRADRILALDADPGAGNLADRVGRQSGATIADVLAEKELSHYNDIRAHTSVNAVNLEVLPAPEYSSAQRALSDADWHFIADPASRFYNLVLADCGAGFFDPLTRGVLSTVSGVVVVASVSIDGAQQASVALDWLRNNGYQDLASRACVVINHIMPGEPNVAVKDLVRHFEQQVQPGRVVVMPWDRHIAAGTEISLDLLDPIYKRKVLELAAALSDDFERAGRR
B10: Rv0294: MTB protein, novel CD4 T cell antigen; Intermediary metabolism and respiration, Island 1 (protein, listed as Mycobacterium tuberculosis)
chain: MWDPDVYLAFSGHRNRPFYELVSRVGLERARRVVDLGCGPGHLTRYLARRWPGAVIEALDSSPEMVAAAAERGIDATTGDLRDWKPKPDTDVVVSNAALHWVPEHSDLLVRWVDELAPGSWIAVQIPGNFETPSHAAVRALARREPYAKLMRDIPFRVGAVVQSPAYYAELLMDTGCKVDVWETTYLHQLTGEHPVLDWITGSALVPVRERLSDESWQQFRQELIPLLNDAYPPRADGSTIFPFRRLFMVAEVGGARRSGG
B11: Rv3125c: MTB protein, novel CD4 T cell antigen; PE/PPE (protein, listed as Mycobacterium tuberculosis)
chain: MVLGFSWLPPEINSARMFAGAGSGPLFAAASAWEGLAADLWASASSFESVLAALTTGPWTGPASMSMAAAASPYVGWLSTVASQAQLAAIQARAAATAFEAALAATVHPTAVTANRVSLASLIAANVLGQNTPAIAATEFDYLEMWAQDVAAMVGYHAGAKSVAATLAPFSLPPVSLAGLAAQVGTQVAGMATTASAAVTPVVEGAMASVPTVMSGMQSLVSQLPLQHASMLFLPVRILTSPITTLASMARESATRLGPPAGGLAAANTPNPSGAAIPAFKPLGGRELGAGMSAGLGQAQLVGSMSVPPTWQGSIPISMASSAMSGLGVPPNPVALTQAAGAAGGGMPMMLMPMSISGAGAGMPGGLMDRDGAGWHVTQARLTVIPRTGVG
B12: Rv3135: MTB protein, novel CD4 T cell antigen; PE/PPE (protein, listed as Mycobacterium tuberculosis)
chain: B11 chain

Tested on: PBMCs from LTBI donors (IFN-γ production)
Assay type: cell-based, human
Settings: ex vivo IFN-γ ELISPOT; for Resp. freq.: fraction of 28 LTBI donors responding to epitopes of the antigen; for Total SFC: total spot-forming cells, LTBI donors

Row | Molecule | Resp. freq. | Total SFC
1 | B1 | 14% | 1073 SFC
2 | B2 | 14% | 1153 SFC
3 | B3 | 14% | 708 SFC
4 | B4 | 14% | 177 SFC
5 | B5 | 18% | 798 SFC
6 | B6 | 25% | 347 SFC
7 | B7 | 25% | 355 SFC
8 | B8 | 29% | 1595 SFC
9 | B9 | 18% | 1323 SFC
10 | B10 | 18% | 1368 SFC
11 | B11 | 21% | 125 SFC
12 | B12 | 18% | 317 SFC
